Test results as given in the DeepSol protein solubility set.

assay: soluble on expression in E. coli; label from the status in PepcDB or PDB records

Soluble on expression in E. coli, not soluble:
MGSDKIHHHHHHMFPLVTITGEPFERGQQYGAATAALIRHSIASYARLFAYRRGMDWEAVQQAALAYEPLLHDVAPDLLTEMRGIAVGASRTLAEIIALNVRTELLAGVGVGFHHPEAAAALARNRAAGVPQHQEQLPATPATGSDDGECTTAAASPPATANGRVWLAQTWDWQGDQRAACVLLRVSGPDTPTLLTLTEAGMVAKIGLNEAGIAVGLNLLRSRADGQQQGMPVHVLLRQMLQSTDTVTARRLVSQIPAAGSSCITLAGADGELVALELTPTGIAEIPAQEGLLAHANHCLDGGTAAGECPLEPTSTTRERYGRAWELLHAAAGQIDLDVLQVILRDHDGAPRCICRHPDPRVAAVDRNESVCGVIIDLRGRTMHVAANIPCQAPFVPFML, MGSDKIHHHHHHMFRRIREDLIKNHMEGPQGFRSMLAGWVECGFCTIVEDEIRFWNGSRIYLCHCKDEKDRFKYQGAEIHVLLIDELTHFTEVIYRFLRNRVRMVGIKLPAKYAGRFPRILCGANPGGIGHQFVKATFIDGATAMKVYTTEASEGGMRRQFIPAQLEDNPSMNDNDPGYENRLMGLGSESLVRAMRYGDWDVVEGAYFDNFERRRHVVKPFTIPDHWIRFRAGDWGSAKPFAFGWYVVASDDTIIAPGVVVPRGALVKYREWYGVKIDKSGKFLPDVGLKLHAEAVGAGVRQRDYDDIIVYGVLDPAAFSQDGGPSIAERMTRGTTGSNGSTFRRADNKRTAGRGAMGGWDQLRGRLTGDGDGRPMLFFFDTCIHTIRTLPALQHDEANPEDLDTKQEDHAADETRYACMSRPWIAKSKVPAPQVPEGHIALPGAPDEAAGNRRIRI, MGSDKIHHHHHHMFSLFETFIVVYETKSFTLAGKYLFISQPTVTVRIKKLEEELKSTLFLRGKHQEIIPTEAAILFYPKAIAYLKKWEEDQAEVQKKSLAKHPFKIGVSHSAALSIMPGIFKVFEGELEHLDVEINMYDSEKVFELVANHDLHFGIIERLLISDQTETFPLFLDELVLAGNTDSETFFTRESGSGIGYYIKRYLKSAPSAQRNIVRMNSNEMIISHIKAGLGSSLISKSFLTDDIPYQELGSNYHREFLGVSFDEEKDPMIQKLISKIKKETEIH, MGSDKIHHHHHHMFSQTIFFGMKQSARGVSVAFSTLQEASMHKRVLIQAASALLALQFMAVPVFAAGSSGGGSDQTVTQCKKGEVWDKKKKKCVAPQEGMLDDDSIYDAGHALAMAGRYDEAISVLTLAANKQDPRILNYLGYSHRHSGRVTVGLGYYEEALRIDPNYTLVREYLGEAHLQIGDLAGAQQQLMEIEKRTGKGSREYGMLSEQIDHFMRS, MGSDKIHHHHHHMFTSNQGAGRMNKEVGMDNPGLDVYLRDQKIGRLWLDDKRRFVFQYDSEWTHQKGAVPLSLHLPLREEIYPDDLARPFFSNLLPEAEVKRAIAQRLRISESNDFALLNSIGGECAGAVSVLPAGVAPAMKPGYRELSEEELHRIIIELPRRPLLAGVEGMRLSLAGAQNKLPVYMEDHRIFIATGNAPSSHILKPPIRDLEDTVGNEAFCMILAQRLGLQVPVVTIRRGLDRIFIIARYDRSRDTDGHIVRLHQEDFCQALGFLPEQKYENEGGPSLKQCFTLLQEKSIRPAADRMALLRWTIFNLLIGNDDAHAKNLAMIFTDRGPRLAPFYDLICTQVYPDLTEKQAMRIGGENRPSWILQKHWDRFSESTAIKPNLVLKTLKEMSAAIALAAQTLSSEFIKKYGTCTIIEEILAVIEKRAESV, MGSDKIHHHHHHMFVRVDISSLPLGKRMAQDIYDFDGHLLISKGIVVQESHLQQLRQRGYEYVYIQEEDEVNENSLNQGIAYLTDKQLPKAFSASVEGMRQMMDKVSSRHMIKLGEVEECIDLVYDHVLQTYNVLKHLQDLRNKDEYTLQHSVSVGILSIKIGQSLGLDADKLKNLGIAGLLHDIGKSMISLDIINKPGPLDDKEFKEIKKHPVYGYQIVNEIKLEDQDIPQAVLQHHEHQDGNGYPLGIRGDRINSFARIIAVADVFDALTSDRAYRPRMSLLQAVDIIIKSSCGQLDPLASRRLLSYVLDITTGEKVILSTGEEATVILKNEVDPARPLVRIGDNFLDLKTNRDVFIKDFAR, MGSDKIHHHHHHMFYPEKRDGFSRTGKFEVEGRTVQTPAILEVGEIPEWDFGLAPTSLKFISEELYSRLRPINEEVEILTSLHLLSPRQLVQVFEDLSKEGVSPKPLYAASSALPSNVSLLIYLGADLVDNVLAIAKAYSGIYFLGEVEVEISKLRRLPCNCIHCRNRVVDEVENLLETTAKHNTEMLRMEVEKCRRLILNEELRNYVEGKVKLNPEFTAALRLSDSLRNHSTFPRFRKSRCNFSALESSSRFEVRYFFERALECYKPFSDTVLLLPCTARKPYLTSRTHRALRSKVKVNVNEIIISSPLVVPREFELLYPAVNYDTPVTGHWSEEEVSFVAGWLKRFIEKGGFRKVVAHVTGGYRKVVERVEDEVEAEVVYTAEKDVLSDESIERLKQEIESKGKVDLYRRILEHMLSYQFGITWSGKVAGRYPELELLEGKKRLARVDRIYGMLDIYEKIAAYLLEKNIYTVEIGDFEVKGTIFAGGVLRADEKIRPNDVVVFHNSRIFGVGLAAMSGKEMAGSEKGIAINVKRKFSF, MGSDKIHHHHHHMGCEIDRDASGLHSLQGLAGRDVSVAAGAKVGWSFMGTGTIATELVVEAIRSVGHSPLWVVSRSKRDADHFAEDLGIPHSTTELGPVLQDPSVGFAYISASLKRRPHYITAAAGAGKHILCDGPISCTSKTASALVELCRGARASLVVNQRLRASTIHQTMRRLVRDGDIGAVQSIVLIRGGPYQAPPNRSARDFNDGSGIYLDVSVENIDLARFLTGAEPVEATALITSEKMVPSQATYILRLSDGSLFQAHESFRTADIESMVLVAGDRGALIAQGTLNGRTSGTLMRRADGRNEAVPVRDHDVHLATVREFANTRGQTPSWLSQGTDSVIALRTVEAVAMSAKKRRTVPIQG, MGSDKIHHHHHHMGHYEHKTKEELLEIVCKLEKKVEGLSSELDSLKKGRFRERYSTRILDALPDMLTVFDHNANIVELASSPTTNHVEGTTSDSIINSNVKDIVPEEAYESVRHNMDKVIHTGKSSTAEHSLMLDGVLHHYENRIFPLDDQYLLCMCRDVSQETEMAKINETQRSEIVRLNSLMNDILNNIPVYLFVKDTGNDFRYLYWNKAFAEHSGISVQRAVGSTDADIFPDKKDAEHFREDDLKVMKLGRIEYLENYTTMSGEVRTVTTMKTVVPSGGQHPYIIGVSWDVTEIKKTEKELIAARIKAEEADRMKSSFLANMSHEIRTPLNAIVGFSKLIIEADNECEKRQYADIVEHNSTVLLNLFNDILDLSALEAGSLELSYHPVRLKDICLQLYELHVKSVKPEVRLVLDEVDSQLCIQGDWERISQVLVNLITNAIKFTSVGEIHFGFQKKADMVQFYMSDTGKGIPAERVATIFQRFGKIDDFVQGTGLGLTICRMLVEKMGGRIWVRSKQGEGTVFYFTLPMAK, MGSDKIHHHHHHMGIHLDFGISPKTFRQTYLYQKPKLFKGAVRNLEAASCKYINEIYQRADPTAPLFHLRKKGAIVPKEEYVESFDDLGKTRYRFIKSVIYEHMKNGASLVYNHINNEPFSDHIARQVARFAGAHTIVSGYLAFGSDESYKNHWDTRDVYAIQLFGKKRWQLTAPDFPMPLYMQQTKDTDISIPEHIDMDIILEAGDVLYIPRGWWHRPIPLGCETFHFAVGTFPPNGYNYLEWLMKKFPTIESLRHSFSDWEQDRTRINDTAAQIAAMIADPVNYEAFSEDFLGKERTDTAFHLEQFANPNATPLSDDVRLRLNANNLDTLEKGYLIGNGMKISVDELGKKVLEHIGKNEPLLLKNLLVNFNQAKHEEVRKLIYQLIELDFLEIL, MGSDKIHHHHHHMGKKYDVYGVGNALVDIEYEVSPELLQELKIDKGVMTLLDEDSQNHILENLKNLHCHKSCGGSAANTMVAISQLGGKAFYSCKVANDEFGDFYIEDLLNSQVDTNLKNGDRQSGITGKCLVLVTPDADRTMNTFLGITEKFSTQELVSSALADSEYIYIEGYLVTSPTAKEAAIKAREIAEKAGVKTAMSLSDYNMVKFFKDGLLDIIGPGLDLIFANESEALELADTQDFQVAVDKLKTLSKKFAITRGSKGSVVFDGQELIEIAAPQVKAIDTVGAGDMYAGAFLYGITQSMSYEEAGKLASTAASKIVTSYGPRLKTEELKALVSA, MGSDKIHHHHHHMGLLAGVEISDVPLKKIVTVCLAVLVAGCAGPQTQELLGSAIVAAPVTEIAGNHSIFIATTRKKSDDPNKVFDGERSATLNYARVNVTVPGLHQTGQIERRSRGKSDDPAKYFMASEVVGYDTQPKFSSALNADIAARGGRVMVFVHGYNTGFDDAVYRLTQIVHDSGYPGTPVLFSWASGAKTTDYVYDKESASAARDQLEVTLRMLQQSGARRIDIVAHSMGTWVTMETLRQMAISGDRDLGGKLGDVVLASPDIDVDVFKSQMRRYGKPDKPFILLLSDDDRALRLSGLIAGSRPRVGDYKDAADLASYGVTVVDLSEVKGSDSFNHTKFADNPVLVKMIGQRLREDDGFASDRDVTDRISLLGQ, MGSDKIHHHHHHMGMQARYDGVAVCAPITVPYVRFSPESAHWWTGAALRALGQKTGLNAGDIDGFCFASFSSAPDTVVGMVQHLGLSPRWMDHIPTGGASGIMALRRAARAVQCGDAEVVACVAADTNQIDSYRQTLAGFSRFSQDATYPYGFGGPNATFALITDNFMRQFGTTRETFGKLCVAQRENALSNPLALMKKPLTIEHYMNARPISDPVHLFDCVMPCAGAEAFLVTTPDKAEQLGLSTARILSTIERHNAFADDTVQFRGGWERDQEALWDRAGCGPGDVQCVQVYDDYPVIVAMQLADLGFCSKPGLNDFIAANEFTISGSLPLNTNGGQLSAGQAGAAGGFQNVTEGLRQILQCPLGEQVSDAHRALVSGFGLVNYDRGTCTGAAVLQREALR, MGSDKIHHHHHHMGSLADTLRDRRQKLARLIDFPAILWSGGSNARNFPANRFPFRASSHFLYFAGLPLPNAAIHLEAGKLTLFIDDPAPGSALWHGETPKREEIAETIGADAAKPLSELTPFLAGAATIAVQDATTWTQQSQLLNRWVLPQSQPEGIDLELTKAIVTLRLIHDAGALAELRKAATVSVAAHKAGMVATANAKIEAEVRAAMESVFIAHNMTTAYNSIVTVHGEVLHNEQYHHPLQPGDLLLADVGGETELGWAADITRTWPVSGKFSPTQRDIYDVVLAAHDTCIANILPGVEYAEIHLVGARVIAEGLVNLGILRGNPEDLVEKDAHALFFPHGIGHLLGLDVHDMEDLGDLAGYEEGKKRSDRFGLGYLRLNRPLRTGMLVTIEPGFYQVPAILNDEKIRSRYQYTVNWERLSQFADVRGIRIEDDVLVTDTGSEVLTAALPNDADTVEHLVNKI, MGSDKIHHHHHHMGTDPIEARFEQLNVWRNGDKRAPHKPLLILLALASWQRGAREMRFAECEQKLGELIREFGPAAKAVHPEYPFWRLQNDGLWVVEADQEMRTRQSNSDPLKSELRAAGARGHFFADVAEELERRPALIGRVAQRVLDAHFPETLHEDILAAVGLEVSEETESTTRRRRDPNFRNAVLQAYQYRCAVCELDLRIGSITVGLEAAHVKWHQARGPDAVHNGVALCSLHHKLFDLGAFHIGADRRILVSEQVHGTSRFEEVLLRHHGALALEPVRSEHKVLRDFVGWHFDQVFKKEARPAT, MGSDKIHHHHHHMGTHTEAMPSTTFAQTAVLSQRQRATLNALSAFPQGAQVSEIAASLGLHVNTVRGHLEELVTKNLVRTAPLPSTGRGRPVLMYHATSATPETVAQEYLSLISLLIQHIDLRQPDEIDEVAKVLGKQWAHSIFADHHLEELNGEQTLITLINYLRHLGFDPEVEKTQDPTTSMLQLRTCPFGSMAHAPLSFVCRAHEGMLSAVEKTGGISFELTPLSAPHQCSIVAQLHGNETIHRQRGEEHPHAGHR
